The test has as its target TEAD (residue 28-104) of TEAD1 (UniProt P28347 28-104). The test is described as follows: fluorescence polarisation. On the technique in general: Fluorescence polarisation rises when a labelled molecule tumbles more slowly, as on binding a larger partner.

TEAD (residue 28-104) of TEAD1, sequence (P28347 28-104): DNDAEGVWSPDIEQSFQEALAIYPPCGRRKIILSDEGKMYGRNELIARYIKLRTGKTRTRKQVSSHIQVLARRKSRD

B1: FITC-labeled INSM1 ZF1 (domain or fragment)
chain: not shown
modifications: FITC label (FITC rapid labeling kit), site not stated
In the case of B1, binding was characterised by a dissociation constant (Kd) of 39.5 nM. In other words, the double-digit nanomolar range.

The record behind these values is article PMC11880201 (Nature Communications, 2025).
